Experimental data taken from the supplement of paper PMC10567573.

B1: PTPN9 (parent)
chain: IDFLRVVRNQQSLAVSNMGARSKG
B2: CDC25A (parent)
chain: QLIDPDENKENEAFEFKKPVRPVS

Variants of: B1
Assay: protein stability index of a GFP-peptide fusion (GPS, HEK-293T) (PSI 1-6); higher = more stable
Settings: c terminus: a fixed tail appended
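Note: lentivirally expressed fusions sorted by FACS into six bins by GFP to DsRed ratio, PSI derived from sequencing read proportions per bin multiplied by bin number.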

Protein stability index: each site, then its substitutions
L4: Y 1.89 | C 2.94 | F 2.3 | S 3.6 | N 3.48 | I 1.69 | A 3.04 | K 3.25 | P 3.86 | G 3.69 | E 4.22 | D 4.58 | H 3.35 | Q 3.37 | T 3.33 | V 2.6 | M 2.48 | W 1.72 | R 3.06
Q10: K 2.27 | D 2.63 | N 2.39 | E 2.87 | M 2.54 | L 2.2 | F 2.35 | T 2.4 | P 2.74 | H 2.49 | V 2.02 | G 3.19 | C 1.89 | I 1.95 | Y 2.35 | S 1.43 | A 2.06 | W 2.02 | R 2.19
V6: D 3.26 | W 2.74 | G 3.53 | H 2.67 | T 3.23 | A 3.12 | Q 2.8 | L 2.5 | Y 2.13 | P 3.31 | S 3.36 | M 1.99 | I 1.99 | F 2.26 | E 3.36 | R 2.38 | C 2.42 | K 2.8 | N 3.35
R5: N 3.24 | H 3.15 | Y 2.54 | S 3 | D 3.71 | C 1.48 | I 2.69 | V 1.83 | K 2.39 | T 2.45 | W 2 | Q 3.27 | P 3.73 | E 3.47 | G 2.81 | A 2.06 | M 2.81 | L 2.38 | F 2.88
S12: D 2.75 | Q 2.02 | I 1.99 | N 2.1 | E 2.65 | K 2.55 | L 2.31 | M 2.22 | P 2.46 | F 2.26 | G 2.48 | H 2.41 | A 2.04 | C 1.89
R8: I 2.65 | L 2.04 | W 1.94 | T 2.13 | C 2.27 | V 1.88 | A 2.54 | H 2.32 | S 1.8 | E 3 | K 2.26 | M 1.46 | D 3.22 | N 2.27 | F 1.47 | P 2.51 | G 2.37 | Q 2.32 | Y 1.78
Q11: S 2.31 | M 2.1 | N 2.84 | E 2.35 | R 2.31 | K 2.26 | G 2.35 | L 1.81 | I 1.8 | Y 2.12 | A 1.99 | V 1.67 | H 2.26 | W 1.34 | T 2.29 | F 1.95 | D 2.57 | P 2.37 | C 1.91
N9: C 1.96 | Y 1.93 | K 2.58 | P 2.78 | Q 2.14 | D 3.66 | F 2.66 | E 2.67 | S 2.15 | V 1.89 | G 2.3 | T 2.28 | A 1.94 | L 1.61 | I 1.67 | M 1.88 | H 2.57 | R 2.44
I1: R 3.35 | K 3.59 | Q 4.35 | H 3.96 | Y 3.47 | T 3.43 | W 2.88 | V 3.03 | F 2.75 | C 2.8 | A 3.18 | P 4.25 | S 3.1 | D 4.38 | L 2.95 | M 2.96 | N 3.83 | E 4 | G 3.72
V7: I 2.41 | P 2.94 | A 3.7 | Q 2.97 | T 2.98 | N 3.53 | F 1.84 | W 2.91 | S 3.61 | G 2.96 | E 3.73 | L 1.85 | D 3.16 | C 3.07 | H 3.26 | M 2.03 | K 2.66 | R 3.37 | Y 2.23
F3: Y 2.4 | N 4.45 | S 3.88 | I 2.34 | T 4.5 | R 3.69 | L 2.47 | K 3.93 | P 4.2 | H 4.36 | M 2.75 | W 2.17 | C 3.89 | A 3.55 | V 3.78 | D 4.21 | E 4.29 | G 4.02 | Q 3.89
D2: F 2.33 | W 2.16 | Y 1.78 | G 2.64 | V 2.84 | R 2.03 | A 1.82 | P 2.54 | E 2.54 | Q 1.88 | T 2.05 | S 2.55 | M 1.38 | N 2.06 | C 2.06 | K 1.42 | I 2.35 | H 2.41 | L 1.53

Variants of: B2
Assay: as above
Settings: c terminus: a fixed tail appended

Protein stability index: each site, then its substitutions
P22: M 4.08 | F 3.69 | C 4.98 | T 2.8 | A 3.23 | R 4.23 | L 3.45 | Y 4.71 | V 4.05 | H 3.38 | K 3.25 | G 3.66 | S 4.05 | N 4.14 | I 4.31 | D 4.45
V23: H 4.05 | F 3.89 | G 4.05 | E 4.1 | S 3.09 | N 3.51 | R 3.11 | Q 4.04 | C 3.9 | M 2.46 | K 3.85 | P 3.52 | D 4.41 | Y 3.32 | I 3.43 | A 4.32
P19: Q 4.02 | F 4.44 | L 3.52 | V 4.42 | W 3.87 | I 4.07 | T 4.09 | R 3.85 | H 3.95 | N 4.43 | A 4.44 | S 4.09 | C 3.6 | Y 3.07 | M 3.74 | G 4.06
S24: H 2.87 | E 4.67 | D 5.24 | C 3.5 | F 3.88 | V 3.76 | M 3.49 | A 4.16 | N 3.34 | Q 4.25 | K 4.72 | W 3.3 | R 3.58 | G 3.54 | Y 3.73 | L 3.21 | P 4.33
V20: H 4.3 | Q 3.79 | C 3.61 | I 4 | G 3.97 | W 3.59 | P 4.43 | E 4.04 | M 3.82 | D 4.31 | F 3.71 | L 2.85 | A 4.09 | T 4.54 | N 4.63 | S 4 | K 4.67 | R 3.73
R21: H 3.85 | P 4.46 | K 4.04 | D 4.25 | M 3.81 | A 3.27 | W 3.28 | C 4.34 | F 2.74 | V 3.19 | I 3.39 | T 4.04 | G 4.97 | N 5 | Q 4.67 | L 3.8 | E 4.33
K18: M 3.66 | V 4.23 | S 4.55 | N 4.4 | H 3.82 | P 4.29 | T 4.33 | I 3.97 | L 4.39 | R 3.89 | W 3.73 | Y 4
